How the values were obtained:
[1] = molecular target: T1, integrin αVβ6 (R&D Systems, Cat #3817-AV) (UniProt P06756 31-1048; P18564 22-709, biotinylated (for the bead assays; sites not stated) | biotinylated (for the bead assays; sites not stated)); experiment: Bio-Plex bead binding assay, initial velocities with Lineweaver-Burk plot; avidity constants; beads with immobilised PFL2665c DBLδ1_D4; biotinylated integrin at 3, 6 and 12 µg/ml, 0, 10, 30 min (αVβ3) or 0, 5, 15 min (αVβ6); 1xTBS, 1 mM CaCl2, 1 mM MgCl2; streptavidin-PE; corrected for HisAdEx; conditions: both partners purified
T1 construct: integrin alpha-V chain of soluble recombinant αVβ6; integrin beta-6 chain of soluble recombinant αVβ6; Molecular weight 189.1 kDa according to the manufacturer; Biotinylated when used in solution on beads; immobilised on Petri dishes for the adhesion assays; also called recombinant αVβ6; source: bought: R&D Systems, Cat #3817-AV

[2] = molecular target: T2, integrin αVβ3 (R&D Systems, Cat #3050-AV) (human, UniProt P06756 31-1048; P05106 27-718, biotinylated (for the bead assays; sites not stated) | biotinylated (for the bead assays; sites not stated)); experiment: as above; conditions: both partners purified
T2 construct: integrin alpha-V chain of soluble recombinant αVβ3; integrin beta-3 chain of soluble recombinant αVβ3; Molecular weight 191.3 kDa according to the manufacturer; Biotinylated when used in solution on beads; immobilised on Petri dishes for the adhesion assays; also called αVβ3 integrin; soluble recombinant αVβ3; source: bought: R&D Systems, Cat #3050-AV

B1: DBLδ1_D4 domain of PFL2665c PfEMP1 (single domain) (domain or fragment)
chain: GDDLKQACSTKYGPKAPTSWKCVPSGVSTATSGEGGDAKSRERREAGVPTATSSGNTTGGGKDGATGGSICVPPRRRRLYVGGLTKWAKKYTGNTGESKSQEGVLQTKAVVDGKANAEGGGQKGARGPNGGTEGANSGKGAQQQQEQQQEQQQEQQQQQQQQQQQQPHSTDSSSSPPSSNPRDVDLRNAFVESAAIETFFLWDRYKKEKEKEKEDIEKNGQDTVAYTSSVEKDPQEELQRGDIPDGFLRQMFYTLGDYRDILYSGDKENGNKYMLVDDIKDISDKIKSILNSDVGQKTTAKQWWDDNGQHIWNGMIYALTYNTDTPSGDKPTQIDEVRAQLWDEKEKKPKKTDNDHDYTYENVELKEDDDQSGAKTPSASSGSNDPINNPQLSDFVEIPTYFRWLHEWGSDFCGTRKRMLGKIKHECRGDKVCSGYGENCDDQLKDNPSIFPSLNCPSCGTPCRYYKKWINTKKTEYDKQKSAYEQQQGKCEKENNGAEGNDHDKKFCTRIQNCNEAKDFLKTLGPCRTNDESGKGTLYFDDDTFKH
Binder B1 has a Kd [1] of 0.0564 µM and a Kd [2] of 0.062 µM.

— publication PMC6294747, “Plasmodium falciparum infected erythrocytes can bind to host receptors integrins αVβ3 and αVβ6 through DBLδ1_D4 domain of PFL2665c PfEMP1 protein” (Scientific Reports, 2018)
